This data set has as its target TF-LYAR-FL (FLAG) (human) (UniProt Q9NX58). In words: EMSA. Particulars: EMSA: 10 mM Tris-HCl pH 7.4, 50 mM KCl, 1 mM DTT, 2.5 % (further components not shown in material), 20 µl, 30 min, room temperature.

Consider “GGTATATCTTTCGCTCCGAGTCGGCATTTTGGGCCGCCGGGTTATTGCTGACACGCTGTCCTCTGGCGACCTGTCGTC (double strand) [H0 rDNA promoter probe (H0-BT)]”, for which the binding entry is “no binding”.
